Assay results published in the supplement of paper PMC9170038.

Tested on: MS2 coat protein
Assay: apparent KD of MS2 coat protein; designed switch direction (-1 OFF switch, 1 ON switch): 1; higher = weaker reporter binding
In short: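 SNAP-549-labelled MS2 coat protein was titrated, doubling from 0.7 or 1.5 nM to 3 µM, over designed RNA switches transcribed on Illumina chips by stalled E. coli RNA polymerase. Runs were done without input, with 200 uM small-molecule ligand, or with an oligonucleotide input. Apparent KD is the per-design median over clusters of curve-fitted normalised fluorescence.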

[1] = input ligand: microRNA oligo, concentration not stated
[2] = Eterna round: R95, input ligand: FMN 200 uM
[3] = Eterna round: R95, input ligand: microRNA oligo, concentration not stated
[4] = Eterna round: R95, input ligand: none

Sequence	apparent KD of MS2 coat protein [1] [nM]	apparent KD of MS2 coat protein (input ligand: FMN 200 uM) [nM]	apparent KD of MS2 coat protein (input ligand: none) [nM]	apparent KD of MS2 coat protein [2] [nM]	apparent KD of MS2 coat protein [3] [nM]	apparent KD of MS2 coat protein [4] [nM]
UUACGUACGUAUGAGGAUAUCCAUAAUAAGACAUGAGGAUCACCCAUGUAAACAAAACAAUAAUGGGAGAAGGCAUACGUACGAA [Mat - Same state - Malcolm Mod - D135] (Eterna round: R96, puzzle: Same State 2)	53					
UUACUCAUGUAAGGAUAUGCAGCCGAAACGGCUGCAGAAGGUACUAAAAUACAUGAGGAUCACCCAUGUCUAAUUAAUUAAGAC [Mat - Same State NG 1 - JL mod - D84] (Eterna round: R96, puzzle: Same State NG 1)	36.3	139	66.5			
UUACUCAUGUAAGGAUAUGCAGCCGAAACGGCUGCAGAAGGUACUAUAAUACAUGAGGAUCACCCAUGUCUCUAUUAUAAAGUU [Mat - Same State NG 1 - JL mod - D95] (Eterna round: R96, puzzle: Same State NG 1)	43.4	94.8	49.5			
UUAUAACAUGAGGAUCACCCAUGUCAACAAAGUCGAGGAUAUGGGCAAGAAUUGAGAGAACCAGAAGGCGAAUAUU [Mat - Same State 1 - Mod of UCT - D31] (puzzle: Same State 1)				78.4	131	148
UUAUAACAUGAGGAUCACCCAUGUCAACAAAGUCGAGGAUAUGGGCAGAGAGGAGAAGAACCAGAAGGCGAAUAUU [Mat - Same State 1 - Mod of UCT - D38] (puzzle: Same State 1)				91.2	98.4	94.9
UUAUAACAUGAGGAUCACCCAUGUCAUCUAAGUCGAGGAUAUGGGAAUUAAUUAAUUAAACCAGAAGGCGAAAAUU [Mat - Same State 1 - D91] (puzzle: Same State 1)				160	149	783
UUAUCCUUUUUUUACAUGAGGAUCACCCAUGUUUUUCUUACGUAGGAUAUCGUUGUUUUUUUUUACGAGAAGGACGUAGUAAGA [JR_SSND3_Sub061] (Eterna round: R96, puzzle: Same State NG 3)	31.9	41.3	37.1			
UUAUUAUAUAUAGGAUAUUGAUGUAAUUUAUUUCAAGAAGGAUAUACAUGAGGAUCACCCAUGUUGGAUAGGGUUAGUUUGUUU [JR_SSNG1_Sub079] (Eterna round: R96, puzzle: Same State NG 1)	74					
UUAUUAUUUACAUGAGGAUCACCCAUGUUUUUAUGUCAGAGACAGGAUAUAGUAGUCUCGUUUUACUAGAAGGGUCUUUUUAUU [JR_SSNG3_Sub017] (Eterna round: R96, puzzle: Same State NG 3)	18.9	15.2	22.1			
UUAUUAUUUAUAGGAUAUUGAUGUUUGCUAGUACAAGAAGGAUAAACAUGAGGAUCACCCAUGUAGUUUAAGGUUAGUUUGUUU [JR_SSNG1_Sub078] (Eterna round: R96, puzzle: Same State NG 1)	25.2					
UUCAACUGAGGAGGAUAUGCAGAGGAUCACCCUGUAGAAGGCCUCGAAAGGAGGAUAUGCAGAGGAUCACCCUGUAGAAGGCCU [pwkr ssNG DX.19] (Eterna round: R96, puzzle: Same State NG 1)	148	417	132			
UUCACCUUAUUUUACAUGAGGAUCACCCAUGUUUUCCCUACGUAGGAUAUCGAUGCUUGAUUGUUCGAGAAGGACGAUGUAAGU [JR_SSND3_Sub055] (Eterna round: R96, puzzle: Same State NG 3)	21.7	33.4	33.3			
UUCACCUUAUUUUACAUGAGGAUCACCCAUGUUUUUUUUACGUAGGAUAUCGAUGCUUGAUUGUUCGAGAAGGACGAUGUAAGU [JR_SSND3_Sub054] (Eterna round: R96, puzzle: Same State NG 3)	24.3	27.3	31.1			
UUCCUUCUCGUAGGAUAUGUAGGAUAUUCCUACAUGAGGAUCACCCAUGUUCGCAUGGAAGAAGGACAGAAGGACGAUCACCCU [pwkr ssNG2 2FMN + 1F5.11] (Eterna round: R96, puzzle: Same State NG 2)	74.3	91.3	98.5			
UUCUCCUUUUUUUACAUGAGGAUCACCCAUGUUUUUCUUACGUAGGAUAUCGUUGAGUGUUUGUACGAGAAGGACGUAGUAAGU [JR_SSND3_Sub059] (Eterna round: R96, puzzle: Same State NG 3)	50.5	37.9	67.9			
UUCUCUUUUUAGAGACAAGCUUUUUGAUCACAUGAGGAUCACCCAUGUCUCGUCUUAUGAUUUACUUCGUUAUUUCU [BA Sensor hsa-mir-208a - 2 - 6] (puzzle: Sensor for hsa-mir-208a)				160	15.6	125
